The values that follow come from the DeepSol protein solubility set.

The data set in a line: soluble on expression in E. coli; label from the status in PepcDB or PDB records.
For “MSLNPSKKKNNFNMQDPFAWQKINKQIRDANASQLDVLAKEFDTQETLPIYAYILERKNNFKKHYFIMPYYDNIKDYNKTRQALILAIARQESRFIPTAISVSYALGMMQFMPFLANHIGEKELKIPNFDQDFMFKPEIAYYFGNYHLNYLESRLKSPLFVAYAYNGGIGFTNRMLARNDMFKTGKFEPFLSMELVPYQESRIYGKKVLANYIVYRHLLNDSIKISDIFENLIQNKANDLNKEGHHHHHH”, the “soluble on expression in E. coli” value is listed as “not soluble”.

Consider “MGSDKIHHHHHHMFSEGENVAKATIPLALESAEKNLETSNENEKARRSSSDTAISVRGISKCYQIYDAPRDRLKQFIIPRLRLARQQSRQYFREFWALKGISFEVRKGETVGIIGRNGSGKSTLLQIICGTLTPTAGSVETRGRIAALLELGSGFNPEFTGRENIYMNGAVLGLTREEIDDRFDSIVSFADIGQFIDQPVKTYSSGMSVRLAFAVQAQVDPDILIVDEALSVGDVRFQAKCFARLQQLKDNGTSVLLVTHSSEQIVTHCSSALLLNDGMQFEIGEPRHVVNRYLDLLFGKERRNPDSPQAQPGDIFQEDKGYAESAYQLSTDSDVFQTRNGYNTHEYRWGDGTASILDFYLAANGEPYPSAITVGQTVTLAVSIKFHSDMWRPILGITIKTKDGVTISGTNSEMADLLDLQALVKKGAILVGKCSFQCRLGPGDYFVSLGLATRENDEIIPHDRRYDSIHFIVEPHNKFHGLADLALDLSISHIVESNQI”, for which the “soluble on expression in E. coli” value is “not soluble”.

Turning to “MAHHHHHHMLHPSNALLTALLFVTTRMTNVESVKKKPLPYVKNYNLCDRSVRGIPSRHTKGTIRASTNPITTAPNEDKSDVYTPPISSGN”, the “soluble on expression in E. coli” value is “soluble”.

“MVMETESKFHVLAVDDSLFDRKMIERLLQKSSCQVTTVDSGSKALEFLGLRVDDNDPNALSTSPQIHQEVEINLIITDYCMPGMTGYDLLKKVKESAAFRSIPVVIMSSENVPARISRCLEEGAEEFFLKPVKLADLTKLKPHMMKTKLKKESEKPVAIEEIVVSKPEIEEEEEESSVIEILPLHQEIESEQLEPMLSSNKRKAMEEVVSTDRSRPKYNDITTSV”: the “soluble on expression in E. coli” value is listed as “not soluble”.

As to “MSLYYVTEDDVDKNFDMKAAINAVREAFEEYGKGRAYSSTRVRTFSQDGVLNTMPAAMEKYHISGLKSYYATRNGAKFVVVLFDTAADELLAIIEANRLGQIRTGAVTAYATSILHKNVEIFAIIGSGFQAETQLEGMLKVANPTEIRVYSRNQEHARNFSERSSKKFGVSIRAVESAEAALIGADTITTITNSNVPIVYRKYLGDEYHINLAGSNYINRREAESAVLSDANIVVTEHLEQSLIESVEISEYVKLGGKPIELKDVAVDPTRYSKFHRTVFKSMGIGLEDIISGYAVLKNMGIIEGHHHHHH”, the “soluble on expression in E. coli” value is “soluble”.

Consider “MTTIKLIVNSVSKSERESIIAALHGQSIFNGGGLSPLNKISPSHPPKPATVAVPEETEKKARDVNEKTALLKKKSATELGELATSINTIARDAHMEANLEMEIVPQGLRVLIKDDQNRNMFERGSAQIMPFFKTLLVELAPVFDSLDNKIIITGHTDAMAYKNNIYNNWNLSGDRALSARRVLEEAGMPEDKVMQVSAMADQMLLDAKNPQSAGNRRIEIMVLTKSASDTLYQYFGQHGDKVVQPLVQKLDKQQVLSQRTR”, for which the “soluble on expression in E. coli” value is “not soluble”.

With “MKSLITAGLVFSLIASSYSAQAEEKQSGDLAADIGAVGIPVIAGSIALYKEDYDGFWMFAKGATYTLAATQALKYTVKEERPNGEDNLSFPSGHSSSAFQGASYLQFRYGWEYGVPAYIGASLVGYSRVENEHHYWRDVIAGAVLATTIQYLVTDKYLDSNSVMIAPVINDDHVGIAASFSF”, the “soluble on expression in E. coli” value is listed as “not soluble”.

For the sequence “MYTFDTTDHKSPCCNFQWYIFRKQGESRIITCELFGVIVSLENRWDWLEFMIDDSLQLTAFRCPKRDKLGMETLLQLGDVAQVTGNWKLSNGAFLNATKIAIHNNPDVECKYWLQQIQKYKSKVCELEIPSDWIRRQQRAHNLKTDAVLSFSAQVSTAAATCWKLWKKHFNQGGKISLQRLWEVIQRENCPKMQELSSCRRNQIVQLLIHLGYLIPLSKEPETYVLLIDDILDKQVMQIFNQNIASKTLSLREVAYRLEEYFHVEEISLERVEESILRLAYKEKVEQV”, the “soluble on expression in E. coli” value is reported as “not soluble”.

As for “MSLGEKMAIWRTKKPATKQKIVSDLQELGIKKGDTIIFHASMSKAHWICGGPVTVILALQELVGELGNIVMPAQTGQLSDPAKWENPPVPESWWKIIRRETPPFDPLVTPTRGMGVIAETFRTMPDVERSFHPYHSFCAWGKDKKQILANQPLAKSMGDESPLGKMYQLDAKIILFGVDNNNNTSLHLAEERSNAFPLIENQAAFLKNGEIIWEKYQEIDYNSEVFIALGRAYEKEHDFHPTTIIGAPTKIYDMRDLVDFGTKYFQTKNHEGHHHHHH”, the “soluble on expression in E. coli” value was “soluble”.

Consider “GAMEGIKVFLHERELWLKFHEVGTEMIITKAGRRMFPSYKVKVTGLNPKTKYILLMDIVPADDHRYKFADNKWSVTGKAEPAMPGRLYVHPDSPATGAHWMRQLVSFQKLKLTNNHLDPFGHIILNSMHKYQPRLHIVKADENNGFGSKNTAFCTHVFPETAFIAVTSYQNHKITQLKIENNPFAKGFRGSDDMELHRMSRMQ”, for which the “soluble on expression in E. coli” value is recorded as “soluble”.

Turning to “VSLDKKLMPVPDGHPDVFDREWPLRVGDIDRAGRLRLDAACRHIQDIGQDQLREMGFEETHPLWIVRRTMVDLIRPIEFGDMLRCRRWCSGTSNRWCEMRVRVDGRKGGLIESEAFWIHVNRETEMPARIADDFLAGLHRTTSVDRLRWKGYLKPGSRDDASEIHEFPVRVTDIDLFDHMNNAVYWSVIEDYLASHAELLRGPLRVTIEHEAPVALGDKLEIISHVHPAGSTEIFGPGLVDRAVTTLTYVVGDEPKAVASLFNL”, the “soluble on expression in E. coli” value is recorded as “soluble”.

Regarding “MSLSASFTGAGFFKGGKTLDFSKLSYLSNSFMSLPSTVRNKQASQTAKNKSMIEFIEKIQSKNIVVRQEERGIVISLAADAFFDSASADVKLEENRDSIQKIASFIGFLSPRGYNFKIEGHTDNIDTDVNGPWKSNWELSAARSVNMLEHILNYLDQSDVKRIENNFEVSGFGGSRPIATDDTPEGRAYNRRIDILITTDASLSFPKEGHHHHHH”, the “soluble on expression in E. coli” value is “soluble”.

Take “STDIQMTQSPSSLSASVGDRVTITCQASQDINNYLIWYQQKPGQAPKLLIYDASTLETGVPSRFSGSGSGTEFTFTISSLQPEDLATYYCQQYDNLPYTFGQGTKLEIKR”: the “soluble on expression in E. coli” value is “soluble”.

With “MSNWKPNIPYNDLPPLPPKQDIESKTILKRCIAARASLARLKQAAELIPNQAMLINTLPVMEARASSEIENIVTTTDKLFQSLQMDTERQDPATKEALQYRTALFAGYESLTSRPLCTQTAIMVCNAIKHPYEMAIRKTGGTALKGGNSGNVVYTPPEGEETIRGKLANWERFIHESGDLDPLIIMAAAHYQFEAIHPFTDGNGRTGRILNSLLLIEKGLLDLPILYLSRYIIENRADYYRLLLGVTERQDWESWIIYILDGVADTADWTVSKIDAIRRLFEQTRQHIRTHAQGIYTHELVNLLFEQPYTRIANLEAAGIAKRQTASKYLKELSDIGVLQEIVIGRDKLFIHPRLMELLRGEGNSFTSFQSLVKA”, the “soluble on expression in E. coli” value was “not soluble”.

“VACMIPAPAYHPDPRFQALGGEFADPVEPADFPETVLRFRNDRAAATVGLETLDDRAWLRHFGRFEPLPDNQTRPLAMRYHGHQFRVYNPDLGDGRGFLFGQLREAGTGRLLDLATKGSGQTPWSRAGDGRLTLKGGVREILAASFLEALGVPTSRWCGL”: the “soluble on expression in E. coli” value is listed as “soluble”.

For the sequence “MHPTGPQLGPDVLFRESKMKVTLTFNEQRRAAYRQQGLWGDASLADYWQQTARAMPDKIAVVDNHGASYTYSALDHAASCLANWMLAKGIESGDRIAFQLPGWCEFTVIYLACLKIGAVSVPLLPSWREAELVWVLNKCQAKMFFAPTLFKQTRPVDLILPLQNQLPQLQQIVGVDKLAPATSSLSLSQIIADNIPLTTAITTHGDELAAVLFTSGTEGLPKGVMLTHNNILASERAYCARLNLTWLDVFMMPAPLGHATGFLHGVTAPFLIGARSVLLDIFTPDACLALLEQQRCTCMLGATPFVYDLLNLLEKQPADLSALRFFLCGGTTIPKKVARECQQRSIKLLSVYGSTESSPHAVVNLDNSLSRFMHTDGYAAAGVEIKVVDDARKTLPPGCEGEEASRGPNVFMGYFDEPELTARALDEEGWYYSGDLCRMDEAGYIKITGRKKDIIVRGGENISSREVEDILLQHPKIHDACVVAMPDERLGERSCAYVVLKAPHHSLSLEEMAAFFSRKRVAKYKYPEHIVVIEKLPRTASDKIQKFLLRKDIIRRLTQDVCEEIE”, the “soluble on expression in E. coli” value is “not soluble”.
